Here are results for 41 molecules from patent publication US20110118131A1 (published 2011).

In assay [1] the target is T1, Ep-CAM (UniProt P16422 24-265, limits assumed).
T1 construct: Immobilised on the Biacore chip; construct not described
T1 sequence (looked up): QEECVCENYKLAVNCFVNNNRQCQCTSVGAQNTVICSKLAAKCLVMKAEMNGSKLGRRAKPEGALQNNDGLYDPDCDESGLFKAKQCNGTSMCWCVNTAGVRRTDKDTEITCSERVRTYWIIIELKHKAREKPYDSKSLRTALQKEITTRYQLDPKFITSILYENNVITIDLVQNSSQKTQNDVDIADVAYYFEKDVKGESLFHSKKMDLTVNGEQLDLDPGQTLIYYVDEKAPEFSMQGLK
Description: Biacore, Fab periplasmic extract. Background: SPR reads the build-up and loss of mass on a sensor chip optically.

The target in assay [2] is T2, Ep-CAM (UniProt P16422 24-265, limits assumed).
T2 sequence (looked up): T1 sequence (looked up)
Description: Biacore, Fab periplasmic extract on immobilised Epcam.

Residue numbers refer to the chain shown, from its start.

B1: ING-1 Fab, light chain E98P (Fab, V domains shown)
VH: QIQLVQSGPELKKPGETVKISCKASGYTFTKYGMNWVKQAPGKGLKWMGWINTYTEEPTYGDDFKGRFAFSLETSASTANLQINNLKSEDTATYFCARFGSAVDYWGQGTSVTVSS
VL: DIVMTQAAFSNPVTLGTSGSISCRSSKSLLHSNGITYLYWYLQKPGQSPQLLIYQMSNLASGVPDRFSSSGSGTDFTLRISRVEAEDVGVYYCAQNLPLPRTFGGGTKLEMKR
notes: Fab in periplasmic extract
B1: the binding result in assay [1] is “no binding”.

B2: ING-1 Fab, heavy chain T53P (Fab, V domains shown)
VH: B1 VH with T53P
VL: B1 VL with P98E
notes: Fab in periplasmic extract
For the molecule B2, the binding result in assay [2] is recorded as “no binding”.

B3: ING-1 Fab, heavy chain Y32P (Fab, V domains shown)
VH: B1 VH with Y32P
VL: B1 VL with P98E
notes: Fab in periplasmic extract
Regarding B3, the “fold difference in affinity vs original” value in assay [2] is 0.01 fold.

B4: ING-1 Fab, heavy chain Y32I (Fab, V domains shown)
VH: B1 VH with Y32I
VL: B1 VL with P98E
notes: Fab in periplasmic extract
As to B4, the “fold difference in affinity vs original” value in assay [2] was determined as 0.03 fold.

B5: ING-1 Fab, heavy chain T59P (Fab, V domains shown)
VH: B1 VH with T59P
VL: B1 VL with P98E
notes: Fab in periplasmic extract
On to B5, for which, in assay [2], the binding result is recorded as “no binding”.

B6: ING-1 Fab, heavy chain Y32L (Fab, V domains shown)
VH: B1 VH with Y32L
VL: B1 VL with P98E
notes: Fab in periplasmic extract
Turning to B6, the “fold difference in affinity vs original” value in assay [2] worked out at 0.05 fold.

B7: ING-1 Fab, heavy chain W50L (Fab, V domains shown)
VH: B1 VH with W50L
VL: B1 VL with P98E
notes: Fab in periplasmic extract
With B7, in assay [2], the “fold difference in affinity vs original” value amounted to 0.04 fold.

B8: ING-1 Fab, heavy chain G100P (Fab, V domains shown)
VH: B1 VH with G100P
VL: B1 VL with P98E
notes: Fab in periplasmic extract
As to B8, the binding result in assay [2] was “no binding”.

B9: ING-1 Fab, heavy chain N52A (Fab, V domains shown)
VH: B1 VH with N52A
VL: B1 VL with P98E
notes: Fab in periplasmic extract
Consider B9, for which, in assay [2], the binding result was “no binding”.

B10: ING-1 Fab, heavy chain E57L (Fab, V domains shown)
VH: B1 VH with E57L
VL: B1 VL with P98E
notes: Fab in periplasmic extract
Regarding B10, the binding result in assay [2] is listed as “no binding”.

B11: ING-1 Fab, heavy chain S101L (Fab, V domains shown)
VH: B1 VH with S101L
VL: B1 VL with P98E
notes: Fab in periplasmic extract
As to B11, the binding result in assay [2] is “no binding”.

B12: ING-1 Fab, heavy chain W50A (Fab, V domains shown)
VH: B1 VH with W50A
VL: B1 VL with P98E
notes: Fab in periplasmic extract
Turning to B12, the “fold difference in affinity vs original” value in assay [2] was 0.03 fold.

B13: ING-1 Fab, light chain I35P (Fab, V domains shown)
VH: B1 VH
VL: B1 VL with I35P, P98E
notes: Fab in periplasmic extract
Consider B13, for which the “fold difference in affinity vs original ING-1” value in assay [1] was found to be 0.7 fold.

B14: ING-1 Fab, heavy chain T55G (Fab, V domains shown)
VH: B1 VH with T55G
VL: B1 VL with P98E
notes: Fab in periplasmic extract
With B14, the “fold difference in affinity vs original” value in assay [2] came to 0.02 fold.

B15: ING-1 Fab, heavy chain P58T (Fab, V domains shown)
VH: B1 VH with P58T
VL: B1 VL with P98E
notes: Fab in periplasmic extract
In the case of B15, the “fold difference in affinity vs original” value in assay [2] is 1 fold.

B16: ING-1 Fab, heavy chain W50V (Fab, V domains shown)
VH: B1 VH with W50V
VL: B1 VL with P98E
notes: Fab in periplasmic extract
Consider B16, for which, in assay [2], the “fold difference in affinity vs original” value turned out to be 0.02 fold.

B17: ING-1 Fab, heavy chain Y105G (Fab, V domains shown)
VH: B1 VH with Y105G
VL: B1 VL with P98E
notes: Fab in periplasmic extract
Regarding B17, in assay [2], the binding result was “no binding”.

B18: ING-1 Fab, heavy chain W50P (Fab, V domains shown)
VH: B1 VH with W50P
VL: B1 VL with P98E
notes: Fab in periplasmic extract
As for B18, the binding result in assay [2] is reported as “no binding”.

B19: ING-1 Fab, heavy chain N52L (Fab, V domains shown)
VH: B1 VH with N52L
VL: B1 VL with P98E
notes: Fab in periplasmic extract
As for B19, the binding result in assay [2] is listed as “no binding”.

B20: ING-1 Fab, light chain L29I (Fab, V domains shown)
VH: B1 VH
VL: B1 VL with L29I, P98E
notes: Fab in periplasmic extract
For B20, the binding result in assay [1] was “no binding”.

B21: ING-1 Fab, heavy chain W50I (Fab, V domains shown)
VH: B1 VH with W50I
VL: B1 VL with P98E
notes: Fab in periplasmic extract
As to B21, the “fold difference in affinity vs original” value in assay [2] was 0.07 fold.

B22: ING-1 Fab, heavy chain Y105A (Fab, V domains shown)
VH: B1 VH with Y105A
VL: B1 VL with P98E
notes: Fab in periplasmic extract
For B22, in assay [2], the “fold difference in affinity vs original” value is 0.08 fold.

B23: ING-1 Fab, heavy chain G33T (Fab, V domains shown)
VH: B1 VH with G33T
VL: B1 VL with P98E
notes: Fab in periplasmic extract
As to B23, the “fold difference in affinity vs original” value in assay [2] amounted to 0.01 fold.

B24: ING-1 Fab, heavy chain K31L (Fab, V domains shown)
VH: B1 VH with K31L
VL: B1 VL with P98E
notes: Fab in periplasmic extract
For the molecule B24, the “fold difference in affinity vs original” value in assay [2] amounted to 0.6 fold.

B25: ING-1 Fab, heavy chain N52P (Fab, V domains shown)
VH: B1 VH with N52P
VL: B1 VL with P98E
notes: Fab in periplasmic extract
On to B25, for which the binding result in assay [2] is on record as “no binding”.

B26: ING-1 Fab, heavy chain N52T (Fab, V domains shown)
VH: B1 VH with N52T
VL: B1 VL with P98E
notes: Fab in periplasmic extract
In the case of B26, in assay [2], the binding result is recorded as “no binding”.

B27: ING-1 Fab, light chain K27T (Fab, V domains shown)
VH: B1 VH
VL: B1 VL with K27T, P98E
notes: Fab in periplasmic extract
In the case of B27, in assay [1], the binding result was “no binding”.

B28: ING-1 Fab, heavy chain Y32A (Fab, V domains shown)
VH: B1 VH with Y32A
VL: B1 VL with P98E
notes: Fab in periplasmic extract
In the case of B28, the “fold difference in affinity vs original” value in assay [2] stood at 0.01 fold.

B29: ING-1 Fab, heavy chain E57P (Fab, V domains shown)
VH: B1 VH with E57P
VL: B1 VL with P98E
notes: Fab in periplasmic extract
As for B29, the binding result in assay [2] is listed as “no binding”.

B30: ING-1 Fab, heavy chain E56P (Fab, V domains shown)
VH: B1 VH with E56P
VL: B1 VL with P98E
notes: Fab in periplasmic extract
In the case of B30, in assay [2], the “fold difference in affinity vs original” value was determined as 0.01 fold.

B31: ING-1 Fab, light chain I35L (Fab, V domains shown)
VH: B1 VH
VL: B1 VL with I35L, P98E
notes: Fab in periplasmic extract
As for B31, in assay [1], the “fold difference in affinity vs original ING-1” value came out at 0.6 fold.

B32: ING-1 Fab, heavy chain N52G (Fab, V domains shown)
VH: B1 VH with N52G
VL: B1 VL with P98E
notes: Fab in periplasmic extract
B32: in assay [2], the binding result is “no binding”.

B33: ING-1 Fab, heavy chain Y32G (Fab, V domains shown)
VH: B1 VH with Y32G
VL: B1 VL with P98E
notes: Fab in periplasmic extract
Turning to B33, in assay [2], the “fold difference in affinity vs original” value came to 0.02 fold.

B34: ING-1 Fab, heavy chain T53G (Fab, V domains shown)
VH: B1 VH with T53G
VL: B1 VL with P98E
notes: Fab in periplasmic extract
For B34, the binding result in assay [2] is “no binding”.

B35: ING-1 Fab, heavy chain N52V (Fab, V domains shown)
VH: B1 VH with N52V
VL: B1 VL with P98E
notes: Fab in periplasmic extract
Consider B35, for which, in assay [2], the binding result is given as “no binding”.

B36: ING-1 Fab, heavy chain G33V (Fab, V domains shown)
VH: B1 VH with G33V
VL: B1 VL with P98E
notes: Fab in periplasmic extract
As for B36, the “fold difference in affinity vs original” value in assay [2] was 0.04 fold.

B37: ING-1 Fab, heavy chain W50T (Fab, V domains shown)
VH: B1 VH with W50T
VL: B1 VL with P98E
notes: Fab in periplasmic extract
As for B37, in assay [2], the “fold difference in affinity vs original” value is 0.03 fold.

B38: ING-1 Fab, heavy chain G33A (Fab, V domains shown)
VH: B1 VH with G33A
VL: B1 VL with P98E
notes: Fab in periplasmic extract
As to B38, the “fold difference in affinity vs original” value in assay [2] stood at 0.06 fold.

B39: ING-1 Fab, heavy chain Y105P (Fab, V domains shown)
VH: B1 VH with Y105P
VL: B1 VL with P98E
notes: Fab in periplasmic extract
Take B39: the binding result in assay [2] is given as “no binding”.

B40: ING-1 Fab, heavy chain W50G (Fab, V domains shown)
VH: B1 VH with W50G
VL: B1 VL with P98E
notes: Fab in periplasmic extract
For the molecule B40, in assay [2], the “fold difference in affinity vs original” value came out at 0.03 fold.

B41: ING-1 Fab, heavy chain N52I (Fab, V domains shown)
VH: B1 VH with N52I
VL: B1 VL with P98E
notes: Fab in periplasmic extract
In the case of B41, the binding result in assay [2] was “no binding”.
